# PMC2782046 (The Journal of Biological Chemistry, 2009)
# Where two headings read alike, the source gives them in different places.
# How the values were obtained:
# [1] = target: Recombinant human tropoelastin lacking domain 26A (human); test: SPR
# [2] = target: Recombinant human tropoelastin lacking domain 26A (human); test: ELISA
# [3] = target: Human fibrillin-1 fragment PF2 (human) (UniProt P35555); test: ELISA
# [4] = target: Full-length human fibulin-5 (residues 42–448) (human) (UniProt Q9UBX5); test: ELISA
# [5] = target: Human fibrillin-1 N-terminal fragment PF1, encoded by exons 1–11 (residues 31–489) (human) (UniProt P35555); test: ELISA
# Sequence of Human fibrillin-1 N-terminal fragment PF1, encoded by exons 1–11 (residues 31–489) (human) (P35555 31-489): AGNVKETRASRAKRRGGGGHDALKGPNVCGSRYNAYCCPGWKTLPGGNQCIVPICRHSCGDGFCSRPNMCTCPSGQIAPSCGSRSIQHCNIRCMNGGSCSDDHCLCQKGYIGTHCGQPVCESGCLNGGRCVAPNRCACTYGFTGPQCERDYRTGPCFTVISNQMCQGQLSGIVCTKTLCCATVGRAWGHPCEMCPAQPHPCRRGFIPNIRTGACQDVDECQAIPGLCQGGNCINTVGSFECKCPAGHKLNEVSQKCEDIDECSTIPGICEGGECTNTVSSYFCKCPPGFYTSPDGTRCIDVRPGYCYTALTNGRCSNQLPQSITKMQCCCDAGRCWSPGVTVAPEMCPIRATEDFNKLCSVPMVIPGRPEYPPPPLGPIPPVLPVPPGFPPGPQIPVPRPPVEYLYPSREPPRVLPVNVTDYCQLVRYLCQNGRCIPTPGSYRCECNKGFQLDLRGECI
# [6] = target: Full-length human fibulin-5 (residues 42–448) (human) (UniProt Q9UBX5); test: ELISA; remark: listed apart in the source
# SEC-MALS = target: the molecule itself; test: SEC-MALS
# [7] = target: Recombinant human tropoelastin lacking domain 26A (human); test: ELISA; remark: listed apart in the source
# [8] = target: PF1 variant with the Marfan mutation S115C (human, UniProt P35555 31-489, S115C); test: ELISA
# Sequence of PF1 variant with the Marfan mutation S115C (P35555 31-489 S115C): as the sequence (P35555 31-489) above, with S85C counted along it
# [9] = target: PF1 variant with the Marfan mutation T101A (human, UniProt P35555 31-489, T101A); test: ELISA
# Sequence of PF1 variant with the Marfan mutation T101A (P35555 31-489 T101A): as the sequence (P35555 31-489) above, with T71A counted along it
# [10] = target: PF1 variant with the Marfan mutation R62C (human, UniProt P35555 31-489, R62C); test: ELISA
# Sequence of PF1 variant with the Marfan mutation R62C (P35555 31-489 R62C): as the sequence (P35555 31-489) above, with R32C counted along it
# Sequence of Full-length human fibulin-5 (residues 42–448) (Q9UBX5 42-448): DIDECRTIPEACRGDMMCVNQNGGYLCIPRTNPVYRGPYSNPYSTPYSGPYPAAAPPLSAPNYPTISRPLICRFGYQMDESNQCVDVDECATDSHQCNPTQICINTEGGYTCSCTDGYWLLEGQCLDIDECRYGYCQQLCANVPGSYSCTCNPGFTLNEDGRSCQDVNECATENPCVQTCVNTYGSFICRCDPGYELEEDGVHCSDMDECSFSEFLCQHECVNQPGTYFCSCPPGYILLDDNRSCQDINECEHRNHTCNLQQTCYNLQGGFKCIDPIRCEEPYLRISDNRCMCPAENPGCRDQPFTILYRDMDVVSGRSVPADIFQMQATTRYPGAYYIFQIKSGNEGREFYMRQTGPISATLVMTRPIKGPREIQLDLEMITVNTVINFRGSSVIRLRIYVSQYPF
# Sequence of Human fibrillin-1 fragment PF2 (human) (P35555 45-2731): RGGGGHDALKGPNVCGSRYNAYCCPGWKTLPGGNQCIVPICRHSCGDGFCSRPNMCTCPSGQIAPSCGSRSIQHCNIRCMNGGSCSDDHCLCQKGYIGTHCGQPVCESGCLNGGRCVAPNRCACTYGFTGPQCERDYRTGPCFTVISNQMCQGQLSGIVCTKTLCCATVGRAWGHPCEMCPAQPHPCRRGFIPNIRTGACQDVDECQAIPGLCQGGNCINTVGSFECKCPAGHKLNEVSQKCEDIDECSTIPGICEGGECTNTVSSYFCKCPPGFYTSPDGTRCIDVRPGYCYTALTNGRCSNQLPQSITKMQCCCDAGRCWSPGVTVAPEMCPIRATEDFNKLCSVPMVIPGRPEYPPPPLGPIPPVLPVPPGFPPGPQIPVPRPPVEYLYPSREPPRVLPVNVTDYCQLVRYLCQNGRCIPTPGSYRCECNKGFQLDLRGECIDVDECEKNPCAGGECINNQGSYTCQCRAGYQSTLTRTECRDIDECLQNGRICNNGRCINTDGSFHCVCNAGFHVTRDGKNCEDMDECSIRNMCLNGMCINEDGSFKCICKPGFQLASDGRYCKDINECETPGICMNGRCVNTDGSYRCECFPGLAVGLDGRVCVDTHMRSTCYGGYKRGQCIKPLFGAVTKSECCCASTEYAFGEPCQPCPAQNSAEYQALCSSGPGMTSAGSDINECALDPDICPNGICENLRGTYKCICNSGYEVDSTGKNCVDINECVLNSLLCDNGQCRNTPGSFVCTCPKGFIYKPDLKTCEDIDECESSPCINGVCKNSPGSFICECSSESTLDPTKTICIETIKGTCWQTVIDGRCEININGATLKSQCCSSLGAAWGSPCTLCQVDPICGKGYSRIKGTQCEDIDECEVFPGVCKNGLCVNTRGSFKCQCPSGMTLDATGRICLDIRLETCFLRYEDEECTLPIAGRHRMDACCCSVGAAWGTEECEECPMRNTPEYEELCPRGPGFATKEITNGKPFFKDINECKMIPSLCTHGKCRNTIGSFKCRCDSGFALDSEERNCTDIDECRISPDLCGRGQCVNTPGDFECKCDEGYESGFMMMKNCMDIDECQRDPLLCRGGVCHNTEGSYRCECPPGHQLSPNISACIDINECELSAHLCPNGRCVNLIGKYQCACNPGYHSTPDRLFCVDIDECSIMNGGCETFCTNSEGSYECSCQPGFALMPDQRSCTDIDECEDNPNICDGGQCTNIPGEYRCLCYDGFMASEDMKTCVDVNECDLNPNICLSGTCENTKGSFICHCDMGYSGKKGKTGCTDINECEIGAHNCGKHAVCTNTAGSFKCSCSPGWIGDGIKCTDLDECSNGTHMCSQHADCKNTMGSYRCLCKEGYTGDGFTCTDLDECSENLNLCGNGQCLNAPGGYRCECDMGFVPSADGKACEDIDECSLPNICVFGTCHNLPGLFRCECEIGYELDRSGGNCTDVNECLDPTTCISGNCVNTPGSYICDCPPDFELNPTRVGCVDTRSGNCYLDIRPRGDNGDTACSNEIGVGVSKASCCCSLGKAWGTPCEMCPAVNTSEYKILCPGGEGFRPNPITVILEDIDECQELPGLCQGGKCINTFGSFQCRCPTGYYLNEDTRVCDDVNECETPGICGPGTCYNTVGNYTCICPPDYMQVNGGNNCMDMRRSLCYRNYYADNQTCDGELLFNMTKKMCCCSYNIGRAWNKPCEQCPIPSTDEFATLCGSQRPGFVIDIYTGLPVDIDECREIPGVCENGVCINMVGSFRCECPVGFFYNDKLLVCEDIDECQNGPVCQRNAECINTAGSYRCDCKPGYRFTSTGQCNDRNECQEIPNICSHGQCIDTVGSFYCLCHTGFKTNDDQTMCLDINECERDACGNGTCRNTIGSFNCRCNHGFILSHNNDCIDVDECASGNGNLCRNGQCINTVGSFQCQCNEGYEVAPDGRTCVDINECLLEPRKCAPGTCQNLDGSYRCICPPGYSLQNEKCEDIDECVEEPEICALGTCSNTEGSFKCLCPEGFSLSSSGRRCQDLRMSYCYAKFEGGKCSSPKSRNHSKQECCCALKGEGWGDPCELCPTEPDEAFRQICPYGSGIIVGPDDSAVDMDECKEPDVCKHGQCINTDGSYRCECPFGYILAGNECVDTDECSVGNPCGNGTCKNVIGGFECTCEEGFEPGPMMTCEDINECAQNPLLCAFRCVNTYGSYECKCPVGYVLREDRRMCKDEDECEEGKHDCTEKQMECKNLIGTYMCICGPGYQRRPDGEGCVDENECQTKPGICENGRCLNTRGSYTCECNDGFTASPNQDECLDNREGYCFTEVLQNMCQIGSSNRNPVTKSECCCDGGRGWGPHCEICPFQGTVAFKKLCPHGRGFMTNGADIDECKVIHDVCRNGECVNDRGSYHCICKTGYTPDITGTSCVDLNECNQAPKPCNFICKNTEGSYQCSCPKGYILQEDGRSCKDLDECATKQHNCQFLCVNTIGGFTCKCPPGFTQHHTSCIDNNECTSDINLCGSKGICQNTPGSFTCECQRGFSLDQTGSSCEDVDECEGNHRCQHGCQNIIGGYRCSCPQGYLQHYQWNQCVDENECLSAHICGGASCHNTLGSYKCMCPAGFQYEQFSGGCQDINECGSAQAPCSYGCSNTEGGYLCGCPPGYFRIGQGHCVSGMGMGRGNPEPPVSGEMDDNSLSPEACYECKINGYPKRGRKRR
# Sequence of Fibulin-5 domain pair F5-E4+5 (residues 207–287) (Q9UBX5 207-287): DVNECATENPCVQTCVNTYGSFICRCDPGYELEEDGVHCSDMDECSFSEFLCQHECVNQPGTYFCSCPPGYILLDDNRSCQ
molecule,measurement,setting,value
Full-length fibulin-5 with the cutis laxa mutation S227P (from UniProt Q9UBX5 42-448) (natural protein),Kd,[1],3420 nM
same,koff,[1],0.0093 s⁻¹
same,kon,[1],20000 M⁻¹ s⁻¹
Full-length human fibulin-4 (residues 26–418) (from UniProt O95967 26-443) (natural protein),Kd,[2],131 nM
same,Kd,[3],194 nM
Fibulin-5 domain pair F5-E4+5 (residues 207–287) (from UniProt Q9UBX5 207-287) (domain or fragment),Kd,[2],452 nM
Human full-length lysyl oxidase (from UniProt P28300 22-417) (enzyme),Kd,[4],338 nM
same,Kd,[2],49 nM
same,Kd,[5],26 nM
same,Kd,[6],304 nM
Full-length fibulin-5 with the cutis laxa mutation C217R (from UniProt Q9UBX5 42-448) (natural protein),Kd,[1],865 nM
same,koff,[1],0.0046 s⁻¹
same,kon,[1],8400 M⁻¹ s⁻¹
Full-length human fibulin-5 (residues 42–448) (from UniProt Q9UBX5 42-448) (natural protein),Kd,[1],64 nM
same,koff,[1],0.0013 s⁻¹
same,kon,[1],44000 M⁻¹ s⁻¹
"Full-length human fibulin-4 (residues 26–418) (natural protein, biotinylated (sulfosuccinimidyl 2-(biotinamido)-ethyl-1,3-dithiopropionate) where it was the soluble ligand of a solid phase assay) SPQDSEEPDSYTECTDGYEWDPDSQHCRDVNECLTIPEACKGEMKCINHYGGYLCLPRSAAVINDLHGEGPPPPVPPAQHPNPCPPGYEPDDQDSCVDVDECAQALHDCRPSQDCHNLPGSYQCTCPDGYRKIGPECVDIDECRYRYCQHRCVNLPGSFRCQCEPGFQLGPNNRSCVDVNECDMGAPCEQRCFNSYGTFLCRCHQGYELHRDGFSCSDIDECSYSSYLCQYRCINEPGRFSCHCPQGYQLLATRLCQDIDECESGAHQCSEAQTCVNFHGGYRCVDTNRCVEPYIQVSENRCLCPASNPLCREQPSSIVHRYMTITSERSVPADVFQIQATSVYPGAYNAFQIRAGNSQGDFYIRQINNVSAMLVLARPVTGPREYVLDLEMVTMNSLMSYRASSVLRLTVFVGAYTF",stoichiometry N,SEC-MALS,2
"Fibulin-5 domain pair F5-E1+2 (residues 42–167) (domain or fragment, biotinylated where it was the soluble ligand of a solid phase assay) DIDECRTIPEACRGDMMCVNQNGGYLCIPRTNPVYRGPYSNPYSTPYSGPYPAAAPPLSAPNYPTISRPLICRFGYQMDESNQCVDVDECATDSHQCNPTQICINTEGGYTCSCTDGYWLLEGQCL",Kd,[7],332 nM
same,binding result,[8],binds
same,binding result,[9],binds
same,binding result,[10],binds
"N-terminal four domains of fibulin-4 (residues 26–217) (domain or fragment, biotinylated where it was the soluble ligand of a solid phase assay) SPQDSEEPDSYTECTDGYEWDPDSQHCRDVNECLTIPEACKGEMKCINHYGGYLCLPRSAAVINDLHGEGPPPPVPPAQHPNPCPPGYEPDDQDSCVDVDECAQALHDCRPSQDCHNLPGSYQCTCPDGYRKIGPECVDIDECRYRYCQHRCVNLPGSFRCQCEPGFQLGPNNRSCVDVNECDMGAPCEQRCFNSYGTFLCRCHQGYELHRDGFSCS",stoichiometry N,SEC-MALS,2
"Fibulin-5 domain pair F5-E6FC (residues 288–448) (domain or fragment, biotinylated where it was the soluble ligand of a solid phase assay) DINECEHRNHTCNLQQTCYNLQGGFKCIDPIRCEEPYLRISDNRCMCPAENPGCRDQPFTILYRDMDVVSGRSVPADIFQMQATTRYPGAYYIFQIKSGNEGREFYMRQTGPISATLVMTRPIKGPREIQLDLEMITVNTVINFRGSSVIRLRIYVSQYPF",Kd,[7],965 nM
same,binding result,[8],binds
same,binding result,[9],binds
same,binding result,[10],binds
